# Results taken from paper PMC2542475 (The Journal of Cell Biology, 2008).
# T1: recombinant full-length Vps41 (S. cerevisiae, UniProt P38959 1-992)
# T1 sequence: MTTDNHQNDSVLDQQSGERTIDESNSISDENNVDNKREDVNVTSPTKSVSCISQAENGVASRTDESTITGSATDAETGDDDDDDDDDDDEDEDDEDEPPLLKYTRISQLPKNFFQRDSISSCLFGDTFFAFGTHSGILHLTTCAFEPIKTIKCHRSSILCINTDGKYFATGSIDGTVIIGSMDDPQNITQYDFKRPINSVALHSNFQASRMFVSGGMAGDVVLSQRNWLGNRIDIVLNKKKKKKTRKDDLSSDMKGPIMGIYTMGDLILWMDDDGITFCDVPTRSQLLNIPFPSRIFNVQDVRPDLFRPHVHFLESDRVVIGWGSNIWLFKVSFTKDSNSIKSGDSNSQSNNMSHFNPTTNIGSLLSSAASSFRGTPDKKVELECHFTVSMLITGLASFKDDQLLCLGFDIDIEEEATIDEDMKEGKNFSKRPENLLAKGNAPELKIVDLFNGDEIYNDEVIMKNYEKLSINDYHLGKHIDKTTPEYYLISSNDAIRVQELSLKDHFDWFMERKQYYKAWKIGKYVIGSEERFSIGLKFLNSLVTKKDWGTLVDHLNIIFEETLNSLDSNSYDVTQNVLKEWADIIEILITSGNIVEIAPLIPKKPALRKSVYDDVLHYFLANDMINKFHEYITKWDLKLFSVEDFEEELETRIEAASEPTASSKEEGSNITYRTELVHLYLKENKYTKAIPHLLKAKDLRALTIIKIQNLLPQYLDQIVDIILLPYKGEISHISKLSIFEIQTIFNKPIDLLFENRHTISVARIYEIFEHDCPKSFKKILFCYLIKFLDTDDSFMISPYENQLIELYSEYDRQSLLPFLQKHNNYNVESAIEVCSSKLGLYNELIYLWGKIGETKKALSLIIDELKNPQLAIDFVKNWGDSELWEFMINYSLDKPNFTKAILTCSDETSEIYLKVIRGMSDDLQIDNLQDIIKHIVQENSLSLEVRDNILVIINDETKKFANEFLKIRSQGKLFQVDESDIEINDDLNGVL
# B1: GST-Ypt7 (natural protein)
# chain: MSSRKKNILKVIILGDSGVGKTSLMHRYVNDKYSQQYKATIGADFLTKEVTVDGDKVATMQVWDTAGQERFQSLGVAFYRGADCCVLVYDVTNASSFENIKSWRDEFLVHANVNSPETFPFVILGNKIDAEESKKIVSEKSAQELAKSLGDIPLFLTSAKNAINVDTAFEEIARSALQQNQADTEAFEDDYNDAINIRLDGENNSCSC
# Target: T1, recombinant full-length Vps41
# Experiment: pull-down
binder,measurement,value
B1,binding result,binds
